Data as given in article PMC12307502.

Molecular target: AβO (amyloid-beta oligomer) (UniProt P05067)
Test: fluorescence quenching titration (Cy5/BHQ3), LangmuirEXT1 fit
Details: 25 °C; buffer not stated for the aptamer-only binding assays (AβO detection assay: 50 mM Tris-HCl pH 8, 10 mM MgCl2)

Sequence of UniProt P05067 (P05067 whole entry): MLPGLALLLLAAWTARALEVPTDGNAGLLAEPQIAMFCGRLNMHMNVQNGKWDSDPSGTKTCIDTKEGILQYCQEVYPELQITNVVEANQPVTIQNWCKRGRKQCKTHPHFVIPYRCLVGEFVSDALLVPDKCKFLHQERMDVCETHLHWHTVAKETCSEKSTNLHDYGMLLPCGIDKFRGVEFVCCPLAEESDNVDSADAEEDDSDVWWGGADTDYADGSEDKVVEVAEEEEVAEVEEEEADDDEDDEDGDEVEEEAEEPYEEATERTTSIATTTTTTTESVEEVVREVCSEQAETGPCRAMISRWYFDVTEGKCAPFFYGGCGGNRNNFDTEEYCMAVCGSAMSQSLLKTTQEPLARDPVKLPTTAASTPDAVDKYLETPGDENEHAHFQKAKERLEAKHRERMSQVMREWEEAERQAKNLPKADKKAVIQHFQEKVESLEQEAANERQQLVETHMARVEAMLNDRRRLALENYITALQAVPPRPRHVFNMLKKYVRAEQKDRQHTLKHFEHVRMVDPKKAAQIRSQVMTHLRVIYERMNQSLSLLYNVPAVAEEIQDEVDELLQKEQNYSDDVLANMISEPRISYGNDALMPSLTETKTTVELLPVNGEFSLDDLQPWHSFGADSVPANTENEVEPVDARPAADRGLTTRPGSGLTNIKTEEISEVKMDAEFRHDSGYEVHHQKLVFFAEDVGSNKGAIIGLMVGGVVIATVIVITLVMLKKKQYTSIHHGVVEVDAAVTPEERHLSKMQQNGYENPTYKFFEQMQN

For “TGACCAACGCCTGTGGTGTTGGGGCGGGTGCGGTTGGTCA [A4]”, the Kd was 7.54 nM.
